Tests used:
[1] = target: T1, Human transferrin receptor protein 1 (TFR1) (human, UniProt P02786 89-760, limits assumed); assay: soft randomization libraries selected against human TfR
T1 construct: also called human TfR

[2] = target: T1, Human transferrin receptor protein 1 …; assay: binding ELISA, purified Fab-Fc fusion, TfR coated on the plate
Method: Binding ELISAs were conducted with purified Fab-Fc fusion variants with human or cyno TfR coated on the plate, as described above. The variants from the clone CH3C.18 maturation library, clone CH3C.3.2-1, clone CH3C.3.2-5, and clone CH3C.3.2-19, bound human and cyno TfR with approximately equivalent EC₅₀ values, whereas the parent clones CH3C.18 and CH3C.35 had greater than 10-fold better binding to human versus cyno TfR.
ELISA plates were coated with antigen, typically at […] overnight, then blocked with 1% BSA before addition of phage or periplasmic extracts. […] The plates were washed again, and then developed with TMB reagent and quenched with 2N sulfuric acid. Absorbance at 450 nm was quantified using a plate reader (BioTek®) and binding curves were plotted using Prism software where applicable. Absorbance signal for tested clones was compared to negative control (phage or paraplasmic extract lacking Fc). In some assays, soluble transferrin or other competitor was added during the binding step, typically at significant molar excess (greater than 10-fold excess).

[3] = target: T1, Human transferrin receptor protein 1 …; assay: selection of combinatorial CH3 libraries for binders to human TfR, affinity maturation

T1 sequence (P02786 89-760 limits assumed): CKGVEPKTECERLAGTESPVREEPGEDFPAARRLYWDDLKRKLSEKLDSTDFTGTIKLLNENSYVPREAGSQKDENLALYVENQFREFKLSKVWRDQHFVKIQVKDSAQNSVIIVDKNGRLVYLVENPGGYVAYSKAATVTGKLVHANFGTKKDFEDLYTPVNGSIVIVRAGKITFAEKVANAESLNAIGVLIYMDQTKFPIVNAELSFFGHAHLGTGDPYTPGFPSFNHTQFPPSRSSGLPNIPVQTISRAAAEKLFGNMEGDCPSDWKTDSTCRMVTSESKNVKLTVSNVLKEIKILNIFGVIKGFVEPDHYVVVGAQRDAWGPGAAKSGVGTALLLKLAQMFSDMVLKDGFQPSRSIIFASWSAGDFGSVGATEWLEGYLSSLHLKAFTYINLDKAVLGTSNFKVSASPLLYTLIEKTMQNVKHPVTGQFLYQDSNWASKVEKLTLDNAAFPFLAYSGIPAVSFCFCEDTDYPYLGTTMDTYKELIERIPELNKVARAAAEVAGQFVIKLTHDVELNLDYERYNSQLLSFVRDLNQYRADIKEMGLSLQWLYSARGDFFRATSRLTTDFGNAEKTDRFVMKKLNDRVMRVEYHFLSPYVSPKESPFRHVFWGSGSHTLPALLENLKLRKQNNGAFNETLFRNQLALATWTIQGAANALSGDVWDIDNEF

| binding result [1] | Binder | other results |
| --- | --- | --- |
| binds | Clone CH3C.21 (designed binder, Modified Fc polypeptide) APELLGGPSVFLFPPKPKDTLMISRTPEVTCVVVDVSHEDPEVKFNWYVDGVEVHNAKTKPREEQYNSTYRVVSVLTVLHQDWLNGKEYKCKVSNKALPAPIEKTISKAKGQPREPQVYTLPPSRDELTKNQVSLTCLVKGFYPSDIAVEWESLGLVWVGYKTTPPVLDSDGSFFLYSKLTVPKSTWQQGWVFSCSVMHEALHNHYTQKSLSLSPGK |  |
| binds | Clone CH3C.34 (designed binder, Modified Fc polypeptide) APELLGGPSVFLFPPKPKDTLMISRTPEVTCVVVDVSHEDPEVKFNWYVDGVEVHNAKTKPREEQYNSTYRVVSVLTVLHQDWLNGKEYKCKVSNKALPAPIEKTISKAKGQPREPQVYTLPPSRDELTKNQVSLTCLVKGFYPSDIAVEWESLGLVWVFSKTTPPVLDSDGSFFLYSKLTVPKSTWQQGWVFSCSVMHEALHNHYTQKSLSLSPGK |  |
|  | Clone CH3C.3.2-1 (designed binder, Modified Fc polypeptide; also called CH3C.18.3.2-1) APELLGGPSVFLFPPKPKDTLMISRTPEVTCVVVDVSHEDPEVKFNWYVDGVEVHNAKTKPREEQYNSTYRVVSVLTVLHQDWLNGKEYKCKVSNKALPAPIEKTISKAKGQPREPQVYTLPPSRDELTKNQVSLTCLVKGFYPSDIAVEWESLGHVWVNFKTTPPVLDSDGSFFLYSKLTVPKSTWQQGWVFSCSVMHEALHNHYTQKSLSLSPGK | binding result [2]: binds |
| binds | Clone CH3C.25 (designed binder, Modified Fc polypeptide) APELLGGPSVFLFPPKPKDTLMISRTPEVTCVVVDVSHEDPEVKFNWYVDGVEVHNAKTKPREEQYNSTYRVVSVLTVLHQDWLNGKEYKCKVSNKALPAPIEKTISKAKGQPREPQVYTLPPSRDELTKNQVSLTCLVKGFYPSDIAVEWESMGHVWVGYKTTPPVLDSDGSFFLYSKLTVDKSTWQQGWVFSCSVMHEALHNHYTQKSLSLSPGK |  |
|  | Clone CH3C.35.21 (designed binder, Modified Fc polypeptide) APELLGGPSVFLFPPKPKDTLMISRTPEVTCVVVDVSHEDPEVKFNWYVDGVEVHNAKTKPREEQYNSTYRVVSVLTVLHQDWLNGKEYKCKVSNKALPAPIEKTISKAKGQPREPQVYTLPPSRDELTKNQVSLTCLVKGFYPSDIAVWWESYGTEWSSYKTTPPVLDSDGSFFLYSKLTVTKEEWQQGFVFSCSVMHEALHNHYTQKSLSLSPGK | binding result [3]: binds |

— patent publication US20210130485A1 (DENALI THERAPEUTICS, published 2021)
